Assay: yeast display, Sf9 membrane polyspecificity reagent, FACS + sequencing; frameworks hold sequencing errors
Procedure, shortened: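 After 36–48 hours of galactose induction, yeast (Saccharomyces cerevisiae BJ5465) displaying a synthetic nanobody library were stained at 4 °C for 1 hour with 10% biotinylated, detergent-solubilized Sf9 membrane reagent. Streptavidin microbeads enriched the stained cells before FACS sorting into low and high (top ~1%) gates on anti-HA and streptavidin fluorescence. Each clone's polyreactivity label reflects its gate of origin.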

Row | Sequence | polyreactivity (PSR sort gate)
1 | QVQLVESGGGIVQAGGSLRLSCAASGSTFYRYVMGWYRQAPGKERELVAAISWSGGSTYYADSVKGRFTISRDNAKNTVYLQMNSLKPEDTAVYYCAAVHKVGWSRHYDYWGQGTQVTVSS | high polyreactivity
2 | QVQLVESGGGLVQAGGSLRLSCAASGIIIARNTMGWYRQAPGKERELVAAISTRGTTTYYADSVKGRFTISRDNAENTVYLQMNSLKPEDTAVYYCAAVRVHTDRYNYWGQGTQVTVSS | high polyreactivity
3 | QVHLVESVGGLVQAGGSLRLSCAASGSIFLRYGMGWYRQAPGKERELVASISSSGGSTYYADSVKGRFTISRDNAKNTVYLQMNSLKPEDTAVYYCAADVPGARVSYWTSSGWHYDYCGQGTQVTVSS | high polyreactivity
4 | QVQLVESGGGLVQAGGSLRLSCAASAITFYDYPMGWYRQAPGKERELVAAITWNGGDTYYADSVKGRFTISRDNAKNTDYLQMNSLKPEDTAVYYCNATRHYFGGFHYEYYYWGQGTQVTVSS | low polyreactivity
5 | QVQLVDSGGGLVQAGGSLRLSCAASGSIYGYYAMGWYRQAPGKELVLVAVITSGATTNYADSLKGRFSISRDNAKNTGYLQMNSLKPEDTAVYYCAARPQVKRGRYGYWGQGTQVTVSS | low polyreactivity
6 | QVQLGESGGGLFQAGGSLRLSCAASVRIFKGYNMGWYREAPRKEMELVAAISKSGGRTYYADSVKGRFTISRDNAKNTVYLQMNSQKPVDTAVYYCAARGGCKRPFGYQLQYDYWGQGTQVTVSS | high polyreactivity
7 | QVQLVESGGGLVQAGGSLRLSCAASGRIFRYYAMGWYRQAPGKERELVATISRSGGSTFYADSVKGRFTISRDNAKNTVYLQMNSLKPEDTAVYYCNARYQTGGYGYWGQGTQVTVSS | high polyreactivity
8 | QVQLVESGGGLVQAGGSLRLSCAASGSTFRKYAMGWYRQAPGKEREFVAAISSSGGRTYYADSVKGRFTISRDNAKNTVYLQMNSLKPEDTAVYYCNAYFRYSYDYWGQGTQVTVSS | high polyreactivity
9 | QVQLVESGGGLVQAGGSLRLSCAASGSTFSTNARGWYRQAPGKERELVAAINWSTGSTHYADSVKGRFTISRDNAKNTVYLQMNSLKPEDTAVYFCAAEGPKQYDYWGQGYQVTVSS | low polyreactivity
10 | QDQHVESGGGLVQAGGSLRLSCAASGSTFRYYAMGWYRQRPGKESEMVAAITRRGGSTYYADSVKGRFTISRDNAKYTVYLQMNSLKQADTAVYYCAAYRIYYSGYGYYYYWGQGTQVTVSS | high polyreactivity
11 | QVQLVESGGGLVQAGGSLRLSCAASGRTIWYYAMGWYRQAPGKERELVAAITNRGGSTSYADSVKVRFTISRDNVKNTVYLQMNSLKPEDTAVYYCAKENYYGGGFDYWGQGTQVTVSS | high polyreactivity
12 | QVQLVESGGGLVQAGGSLRLSCAASGSIFRTYTMGWYRQAPGKEREFVAAISRSGGSTYYADSVKGRFTISRDNAKNTVYLQMNSLKPEDTAVYYCNARCGLGSYGYWGQGTQVTVSS | high polyreactivity
13 | QVQLVESGGGLVQAGGSLRLSCAASGFIFQYYAMGWYRQAPGKERELVAVIRSGGSTYYADSVKGRFTISRDNAKNTVYLQMNSLKPEDTAVYYCARPSRGPPRGYYWGHGTQVTVSS | high polyreactivity
14 | QVQLVESGGGLVQAGGSLRLSCAASGRTFLFNGMGWYRQAPGKERELVASITRGGSTYADSVKGRFTISRDNAKNTGYVQMNSLNPEDTAVYDCNAYFWFPYNYWGQGTQVTVSS | high polyreactivity
15 | QVQLVESGGGLVQAGGSLRLSCAASGSTFSYNAMGWYRQAPGKERELVAAITSSGSSTYYADSVKGRFTISRYNAKNTVYLQMNSMKPEDTAVYYCNAEVLFVAGQVQRNSGDYWGQGTEVTVSS | low polyreactivity
16 | QVQLVESGGGLVQAGGSLRLSCAASGSIFSKYAMGWYRQAPGKERELVAAITFRSGSTYYADSVKGRFTISRDNAKNTVYLQMNSLKPEDTAVYYCAADEYYQVSAYDYWGQGTQVTVSS | low polyreactivity
